Data on 17 sequences can be found in the supplement of paper PMC9170038.

The subject of series [1] is MS2 coat protein. Nature of the series: apparent KD of MS2 coat protein; designed switch direction (-1 OFF switch, 1 ON switch): -1; higher = weaker reporter binding. Particulars: Eterna round: R98. As to the method: (§1)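 RNA-MaP: designed FMN/MS2 RNA switches (84 nt design region) are transcribed on-chip within common flanks and titrated with SNAP-549-labelled MS2 coat protein (about 1-3000 nM) in 100 mM Tris pH 7.5, 80 mM KCl, 4 mM MgCl2, without or with 200 uM FMN. Median apparent KD per design; activation ratio = KD,OFF / KD,ON.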

The test system of series [2] is MS2 coat protein. The series can be described thus: apparent KD of MS2 coat protein; designed switch direction (-1 OFF switch, 1 ON switch): 1; higher = weaker reporter binding. Particulars: Eterna round: R98. The protocol:
as §1

In the case of “AAUAUGAGCUGGAAUAUAAAACUCACAUGAGGAUCACCCAUGUAGGAUAUCAGCACGAUAAGUGCUGAGAAGGACAACCAGCUC [Denovo 31]”, the “apparent KD of MS2 coat protein” value in the series on MS2 coat protein [1] (input ligand: FMN 200 uM) was determined as 15.1 nM; in the series on MS2 coat protein [1] (input ligand: none) it was 16.8 nM.
With “UGUUGUUACGCAGGAUAUUGCCAACAGGCGGUAGGAUAUCCGAAAGGAGAAGGACCGCCAACAGGCGAGAAGGGCGGGUUAACA [pwkr exNG2 2xF7 2FMN.10.1]”, the “apparent KD of MS2 coat protein” value amounted to 37 nM in the series with MS2 coat protein [1] (input ligand: FMN 200 uM) and 35.2 nM in the series with MS2 coat protein [1] (input ligand: none).
For “AAAAUAAAGGCAGGAUAUACAUGAAUAAAUAAUAUAAUAUAUAAUAAAACAUGAGGAUCACCCAUGUAGAAGGGCCAAAAUAAA [LRO024_Exclusion NG 2]”, in that order: 107 nM and 72.3 nM.
For “AAUAUAAGAGCUGGAAAUAAACUCACAUGAGGAUCACCCAUGUAGGAUAUCAGCACGAUAAGUGCUGAGAAGGACAUCCAGCUC [Denovo 56]”, in that order: 14.7 nM and 16.4 nM.
With “GGUCCAUCAUGAGGAUAUGGCACCUUAUUGGUGCCAGAAGGCAUGUGUAUUCACAUGAGGAUCACCCAUGUAAUAAAUUGGACC [Pyrimidine booster 8]”, the results for the “apparent KD of MS2 coat protein” value with MS2 coat protein [2] (input ligand: FMN 200 uM) and with MS2 coat protein [2] (input ligand: none) were 21.5 nM and 53.2 nM, respectively.
For “GUUGCUUUCCGAGGAUAUUCCGGGCGUGGCUAUACAUGAGGAUCACCCAUGUGGCGGAAGCCUAGGGAGAAGGCGGGCUGCUUC [salish99_SSNG2_r2_230]”, in that order: 16.3 nM and 17.1 nM.
For “CCGAUUAGCACAGGAUAUGGGAGUUCGUAGCUCCCAGAAGGGUGAGCCAAUACAUGAGGAUCACCCAUGUGCGGUAGGUCAGGA [Energe]”, the “apparent KD of MS2 coat protein” value was found to be 56 nM with MS2 coat protein [2] (input ligand: FMN 200 uM) and 57.1 nM in the series on MS2 coat protein [2] (input ligand: none).
As to “UGAUCGCUUGGAGGAUAUCCAACUAUCCUAGUUGGAGAAGGCCAAGCUACAGAGCUAAGCUUGGAAGUCACUUCGAAUCAACAC [pwkr Chip 1 Control 70 ssNG1 F9.4]”, the “apparent KD of MS2 coat protein” value in the series on MS2 coat protein [2] (input ligand: FMN 200 uM) was found to be 64.8 nM; in the series on MS2 coat protein [2] (input ligand: none), 53.6 nM.
For “GCACUGGAUGUAGGAUAUCAGGACGAUAAGUCCUGAGAAGGACAUGAGGAUCACCCAUGUGCCAAAACCAGUGCAUAUAAUAUA [Denovo Exng1 33]”, the entries for the “apparent KD of MS2 coat protein” value in the series on MS2 coat protein [1] (input ligand: FMN 200 uM) and in the series on MS2 coat protein [1] (input ligand: none) were 16.9 nM and 12.5 nM, respectively.
In the case of “GACUUGGCUACAUGAGGAUCACCCAUGUUUGACUGGAUCGAUUAGGAUAUAGUGAUUUGCAACAAUUAGAAGGGAUAUUUACGG [byesamestateseeyounextround#3]”, the “apparent KD of MS2 coat protein” value in the series with MS2 coat protein [2] (input ligand: FMN 200 uM) worked out at 31.3 nM; with MS2 coat protein [2] (input ligand: none), 32.9 nM.
As to “UCAUACAUGAGGAUCACCCAUGACAUGAGGAUCACCCAUGUGCAGGAUAUACGUGAUAUAAUAUAGUAGAAGGGCAGACCAUAA [LRO005_Exclusion NG 3]”, the “apparent KD of MS2 coat protein” value with MS2 coat protein [1] (input ligand: FMN 200 uM) was 59.1 nM; in the series on MS2 coat protein [1] (input ligand: none), 40.6 nM.
In the case of “ACAUACAUUCGAGGAUAUCGGUGAUUAAUUCUACGAGAAGGCGAUUUAAGAUAUAAUAUUUUAGACAUGAGGAUCACCCAUGUA [JR_SSNG1_Sub036]”, the entries for the “apparent KD of MS2 coat protein” value with MS2 coat protein [2] (input ligand: FMN 200 uM) and in the series with MS2 coat protein [2] (input ligand: none) were 22.9 nM and 28.3 nM, respectively.
The like results for “GGGUCGCUUGGAGGAUAUCCAACUAUCCUAGUUGGAGAAGGCCAAGCUACAGAGCUAAGCUUGGAAGUCACUUCGGACCCACAC [pwkr ssNG1 F9.4.5]” were, in that order, 47 nM and 15.6 nM.
Consider “CCUGUCGCAUGAGGAUAUGGUCAGCUUUGCUGACCAGAAGGCAUGUCAAUAGACAUGAGGAUCACCCAUGUAGUAAAGACAGGA [Mat - Same State NG 1 - JL Mod - D36]”, for which the “apparent KD of MS2 coat protein” value with MS2 coat protein [2] (input ligand: FMN 200 uM) turned out to be 36.2 nM; in the series on MS2 coat protein [2] (input ligand: none) it was 395 nM.
The like results for “GGAUCCAUCACAGGAUAUGCUGGACUUUGUCCAGCAGAAGGGUGAACAUGAGGAUCACCCAUGUAUUGGAUCCAUAUAUUUAAU [Denovo 35]” were, in that order, 94.1 nM and 1290 nM.
Consider “UCUCUGGAAUACAUGAGGAUCACCCAUGUGUAAACAUUUACACAGGAUAUCGACGUCUGAGACGACGAGAAGGGUGGGCAGCAA [Rexele]”, for which the “apparent KD of MS2 coat protein” value came to 1000 nM in the series on MS2 coat protein [2] (input ligand: FMN 200 uM) and 252 nM in the series with MS2 coat protein [2] (input ligand: none).
On to “CCGAUGCAAAUAAAACAUGAGGAUCACCCAUGUGAGUCUCAUGAGGAUAUGCAGGUCAAAGACUUGCAGAAGGCAUGGCGUCGG [Eli sng3 2.08]”, for which the “apparent KD of MS2 coat protein” value came out at 135 nM in the series on MS2 coat protein [2] (input ligand: FMN 200 uM) and 1370 nM in the series on MS2 coat protein [2] (input ligand: none).
